Experimental data taken from the supplement of paper PMC10065799, “High-throughput profiling of sequence recognition by tyrosine kinases and SH2 domains using bacterial peptide display” (eLife, 2023).

Legend:
Grb2 SH2 = Grb2 SH2 (UniProt P62993); assay: SH2 binding enrichment of the phosphorylated peptide, bacterial display (enrichment ratio); higher = better substrate or ligand; peptides without Tyr show the background
c-Src SH2 = assay: as above
SHP2-C SH2 = assay: as above
Fer (mouse) = assay: phosphorylation enrichment, bacterial display (enrichment ratio); higher = better substrate or ligand; peptides without Tyr show the background
Hck = Hck (UniProt P08631); assay: as above
Sequence of Hck (P08631 whole entry, looked up): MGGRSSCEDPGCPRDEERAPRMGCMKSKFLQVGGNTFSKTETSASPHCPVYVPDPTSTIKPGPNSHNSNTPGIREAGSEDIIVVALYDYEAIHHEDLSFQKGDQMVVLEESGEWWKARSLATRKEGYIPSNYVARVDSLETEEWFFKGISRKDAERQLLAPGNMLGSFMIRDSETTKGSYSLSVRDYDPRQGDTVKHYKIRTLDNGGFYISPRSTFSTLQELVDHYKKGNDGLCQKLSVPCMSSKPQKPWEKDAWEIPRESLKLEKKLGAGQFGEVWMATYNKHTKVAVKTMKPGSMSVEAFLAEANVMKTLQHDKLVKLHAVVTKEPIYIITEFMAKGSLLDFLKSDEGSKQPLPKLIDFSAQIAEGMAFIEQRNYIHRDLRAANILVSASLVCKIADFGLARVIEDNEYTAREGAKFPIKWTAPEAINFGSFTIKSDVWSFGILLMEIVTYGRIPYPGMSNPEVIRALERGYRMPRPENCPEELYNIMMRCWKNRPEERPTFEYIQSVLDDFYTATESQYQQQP

c-Src = assay: as above
c-Abl (mouse) = assay: as above
MERTK = MERTK (UniProt Q12866); assay: as above
Fes = Fes (UniProt P07332); assay: as above
EPHB1 = EPHB1 (UniProt P54762); assay: as above
Sequence of EPHB1 (P54762 whole entry, looked up): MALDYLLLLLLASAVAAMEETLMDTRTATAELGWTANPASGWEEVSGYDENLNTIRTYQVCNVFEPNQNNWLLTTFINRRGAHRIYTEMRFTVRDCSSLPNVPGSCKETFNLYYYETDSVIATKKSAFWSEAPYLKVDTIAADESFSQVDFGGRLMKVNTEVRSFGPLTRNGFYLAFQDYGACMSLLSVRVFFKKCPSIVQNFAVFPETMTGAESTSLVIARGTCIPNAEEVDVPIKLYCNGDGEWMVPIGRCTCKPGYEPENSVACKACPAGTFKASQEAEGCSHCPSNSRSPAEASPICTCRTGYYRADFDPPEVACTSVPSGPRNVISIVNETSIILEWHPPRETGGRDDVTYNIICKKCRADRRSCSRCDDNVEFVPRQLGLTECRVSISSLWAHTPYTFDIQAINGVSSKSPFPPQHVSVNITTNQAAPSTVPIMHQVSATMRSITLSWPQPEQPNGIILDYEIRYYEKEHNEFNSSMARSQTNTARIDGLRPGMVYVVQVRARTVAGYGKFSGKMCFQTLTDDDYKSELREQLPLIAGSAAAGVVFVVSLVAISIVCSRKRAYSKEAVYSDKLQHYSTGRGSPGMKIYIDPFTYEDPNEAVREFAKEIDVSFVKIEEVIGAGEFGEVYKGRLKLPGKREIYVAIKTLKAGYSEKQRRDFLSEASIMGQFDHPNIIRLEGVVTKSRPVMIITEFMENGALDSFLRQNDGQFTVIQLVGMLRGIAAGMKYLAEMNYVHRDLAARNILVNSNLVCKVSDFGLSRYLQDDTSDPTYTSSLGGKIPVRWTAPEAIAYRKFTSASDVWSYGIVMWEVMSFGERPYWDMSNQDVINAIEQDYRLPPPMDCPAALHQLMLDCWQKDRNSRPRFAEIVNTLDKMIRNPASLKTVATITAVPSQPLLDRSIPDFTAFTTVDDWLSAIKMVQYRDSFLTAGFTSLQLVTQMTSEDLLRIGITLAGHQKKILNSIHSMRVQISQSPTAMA

Fyn = Fyn (UniProt P06241); assay: as above
Sequence of Fyn (P06241 whole entry, looked up): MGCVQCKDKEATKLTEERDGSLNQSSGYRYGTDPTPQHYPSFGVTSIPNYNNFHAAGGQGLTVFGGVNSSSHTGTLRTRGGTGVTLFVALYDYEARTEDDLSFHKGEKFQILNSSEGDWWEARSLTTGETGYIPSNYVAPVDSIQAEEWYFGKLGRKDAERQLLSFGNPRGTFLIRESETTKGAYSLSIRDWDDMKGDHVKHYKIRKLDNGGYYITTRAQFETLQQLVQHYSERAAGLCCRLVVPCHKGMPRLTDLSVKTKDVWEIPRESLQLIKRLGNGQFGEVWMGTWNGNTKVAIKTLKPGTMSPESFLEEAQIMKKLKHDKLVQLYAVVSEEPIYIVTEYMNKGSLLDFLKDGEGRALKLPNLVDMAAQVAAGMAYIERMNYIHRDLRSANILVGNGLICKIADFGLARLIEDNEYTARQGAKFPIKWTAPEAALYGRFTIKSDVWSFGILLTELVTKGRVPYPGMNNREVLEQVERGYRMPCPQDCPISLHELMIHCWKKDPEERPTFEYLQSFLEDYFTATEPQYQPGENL

EPHB2 = EPHB2 (UniProt P29323); assay: as above
AncSZ = assay: as above
Jak2 = Jak2 (UniProt O60674); assay: as above
Sequence of Jak2 (O60674 whole entry, looked up): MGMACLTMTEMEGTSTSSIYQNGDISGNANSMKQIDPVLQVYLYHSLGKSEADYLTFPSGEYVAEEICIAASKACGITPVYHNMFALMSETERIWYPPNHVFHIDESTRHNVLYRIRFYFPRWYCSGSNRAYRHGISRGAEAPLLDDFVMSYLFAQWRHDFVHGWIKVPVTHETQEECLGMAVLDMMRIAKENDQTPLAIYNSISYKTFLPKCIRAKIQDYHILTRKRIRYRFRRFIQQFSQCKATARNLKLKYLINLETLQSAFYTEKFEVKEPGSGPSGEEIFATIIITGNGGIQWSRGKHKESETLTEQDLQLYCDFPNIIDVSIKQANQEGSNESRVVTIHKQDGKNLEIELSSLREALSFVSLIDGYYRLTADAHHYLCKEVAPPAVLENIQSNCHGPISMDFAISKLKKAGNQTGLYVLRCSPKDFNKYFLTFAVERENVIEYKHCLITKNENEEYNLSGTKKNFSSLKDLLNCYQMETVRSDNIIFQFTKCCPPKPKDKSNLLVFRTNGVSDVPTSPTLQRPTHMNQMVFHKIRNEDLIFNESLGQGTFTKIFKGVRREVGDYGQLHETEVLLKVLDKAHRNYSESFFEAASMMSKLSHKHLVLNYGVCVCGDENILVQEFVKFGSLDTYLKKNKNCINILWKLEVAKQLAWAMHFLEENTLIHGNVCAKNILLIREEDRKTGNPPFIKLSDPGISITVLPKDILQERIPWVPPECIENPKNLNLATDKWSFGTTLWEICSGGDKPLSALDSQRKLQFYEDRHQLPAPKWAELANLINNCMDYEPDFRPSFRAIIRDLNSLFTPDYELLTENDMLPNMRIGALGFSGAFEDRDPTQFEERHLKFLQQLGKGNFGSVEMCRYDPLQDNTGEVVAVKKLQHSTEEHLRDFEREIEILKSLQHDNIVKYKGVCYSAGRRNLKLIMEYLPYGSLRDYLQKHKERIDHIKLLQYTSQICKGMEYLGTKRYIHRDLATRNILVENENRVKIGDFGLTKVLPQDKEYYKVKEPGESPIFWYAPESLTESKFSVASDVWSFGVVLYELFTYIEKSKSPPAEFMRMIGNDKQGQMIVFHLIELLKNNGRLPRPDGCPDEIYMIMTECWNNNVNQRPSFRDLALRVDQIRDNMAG

FGFR3 = FGFR3 (UniProt P22607); assay: as above
Sequence of FGFR3 (P22607 whole entry, looked up): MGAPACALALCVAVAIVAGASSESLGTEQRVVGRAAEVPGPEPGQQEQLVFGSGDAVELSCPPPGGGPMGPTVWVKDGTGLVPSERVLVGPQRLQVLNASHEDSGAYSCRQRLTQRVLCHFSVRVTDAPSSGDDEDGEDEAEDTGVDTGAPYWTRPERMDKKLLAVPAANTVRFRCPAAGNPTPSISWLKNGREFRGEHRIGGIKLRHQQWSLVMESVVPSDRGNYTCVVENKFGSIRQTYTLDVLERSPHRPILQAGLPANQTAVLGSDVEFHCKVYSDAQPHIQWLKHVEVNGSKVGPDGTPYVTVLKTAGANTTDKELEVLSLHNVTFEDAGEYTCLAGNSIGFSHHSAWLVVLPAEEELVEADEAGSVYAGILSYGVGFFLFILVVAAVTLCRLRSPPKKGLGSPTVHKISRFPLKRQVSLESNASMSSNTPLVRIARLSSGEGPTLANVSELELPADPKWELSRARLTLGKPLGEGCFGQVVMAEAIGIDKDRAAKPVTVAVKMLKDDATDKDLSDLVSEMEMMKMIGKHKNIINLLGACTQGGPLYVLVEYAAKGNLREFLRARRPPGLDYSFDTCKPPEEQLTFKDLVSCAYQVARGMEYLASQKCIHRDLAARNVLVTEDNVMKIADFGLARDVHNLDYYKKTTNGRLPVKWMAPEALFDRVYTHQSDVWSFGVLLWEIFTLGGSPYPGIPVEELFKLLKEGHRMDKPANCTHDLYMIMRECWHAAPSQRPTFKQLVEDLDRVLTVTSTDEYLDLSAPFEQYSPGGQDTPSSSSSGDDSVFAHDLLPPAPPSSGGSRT

FGFR1 = FGFR1 (UniProt P11362); assay: as above
Sequence of FGFR1 (P11362 whole entry, looked up, the tested form may be a part): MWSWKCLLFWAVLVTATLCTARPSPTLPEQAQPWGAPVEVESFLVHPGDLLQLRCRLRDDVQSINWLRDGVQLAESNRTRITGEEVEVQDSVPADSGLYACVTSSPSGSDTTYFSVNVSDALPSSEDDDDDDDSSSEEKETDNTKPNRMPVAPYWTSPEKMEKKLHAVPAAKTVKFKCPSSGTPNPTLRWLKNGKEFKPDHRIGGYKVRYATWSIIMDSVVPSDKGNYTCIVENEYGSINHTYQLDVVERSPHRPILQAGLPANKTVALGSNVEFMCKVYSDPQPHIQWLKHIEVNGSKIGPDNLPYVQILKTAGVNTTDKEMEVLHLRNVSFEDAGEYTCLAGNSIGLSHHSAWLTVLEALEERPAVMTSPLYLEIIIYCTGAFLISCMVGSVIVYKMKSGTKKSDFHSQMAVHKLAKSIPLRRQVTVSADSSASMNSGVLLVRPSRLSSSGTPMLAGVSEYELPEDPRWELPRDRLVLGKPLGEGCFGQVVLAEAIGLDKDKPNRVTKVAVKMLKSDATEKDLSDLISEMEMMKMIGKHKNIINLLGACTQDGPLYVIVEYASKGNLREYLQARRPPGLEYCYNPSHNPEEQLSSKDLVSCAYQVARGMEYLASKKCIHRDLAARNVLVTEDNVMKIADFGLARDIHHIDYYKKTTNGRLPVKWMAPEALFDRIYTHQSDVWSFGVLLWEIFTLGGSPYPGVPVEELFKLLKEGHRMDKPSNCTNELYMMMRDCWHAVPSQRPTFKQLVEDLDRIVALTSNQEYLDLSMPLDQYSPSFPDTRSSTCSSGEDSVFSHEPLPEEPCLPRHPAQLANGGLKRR
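Throughout, for SH2 binding enrichment of the phosphorylated peptide, bacterial display: peptide library displayed on the E. coli surface as eCPX fusions, selected cells deep-sequenced, score is each peptide's frequency after selection divided by its frequency in the input.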
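Throughout, for phosphorylation enrichment, bacterial display: 11-residue human phosphosite peptides and single-mutation variants displayed on the E. coli surface, counted by deep sequencing, each peptide's frequency after selection divided by its frequency in the unselected input library; frequency after pTyr selection over input frequency; kinase dosed for 20-30% of maximal phosphorylation in three min.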

Sequence of Grb2 SH2 (P62993 whole entry, looked up): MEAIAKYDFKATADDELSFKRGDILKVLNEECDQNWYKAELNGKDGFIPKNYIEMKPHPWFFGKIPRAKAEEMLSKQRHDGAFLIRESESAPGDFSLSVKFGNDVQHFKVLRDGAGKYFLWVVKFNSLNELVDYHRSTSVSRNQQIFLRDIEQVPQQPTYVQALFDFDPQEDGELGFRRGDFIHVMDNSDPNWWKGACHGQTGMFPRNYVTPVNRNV

Row | Sequence | SH2 binding enrichment (Grb2 SH2) | SH2 binding enrichment (c-Src SH2) | SH2 binding enrichment (SHP2-C SH2) | phosphorylation enrichment (Fer (mouse)) | phosphorylation enrichment (Hck) | phosphorylation enrichment (c-Src) | phosphorylation enrichment (c-Abl (mouse)) | phosphorylation enrichment (MERTK) | phosphorylation enrichment (Fes) | phosphorylation enrichment (EPHB1) | phosphorylation enrichment (Fyn) | phosphorylation enrichment (EPHB2) | phosphorylation enrichment (AncSZ) | phosphorylation enrichment (Jak2) | phosphorylation enrichment (FGFR3) | phosphorylation enrichment (FGFR1)
1 | EEQKRYYNAMK [SCN5A_Y1494_K1493R] | 1.32 | 0.813 | 0.522 | 0.436 | 0.46 | 0.327 | 0.352 | 0.351 | 0.648 | 0.512 | 0.471 | 0.49 | 0.623 | 0.479 | 0.48 | 0.511
2 | GRRNTCFASIA [ACADM_Y352_Y352C_YF] | 0.842 | 0.529 | 0.565 | 0.424 | 0.365 | 0.391 | 0.556 | 0.413 | 0.691 | 0.383 | 0.401 | 0.348 | 0.665 | 0.711 | 0.405 | 0.377
3 | MNLLGYRHVRS [CHST4_Y359] | 0.855 | 0.545 | 0.748 | 0.409 | 0.488 | 0.405 | 0.663 | 0.4 | 0.738 | 0.423 | 0.403 | 0.461 | 0.761 | 0.691 | 0.466 | 0.612
4 | VDSLRYIYPKL [EIF2B3_Y92_A87V] | 0.88 | 10.7 | 1.43 | 0.532 | 0.524 | 0.424 | 0.553 | 0.489 | 0.844 | 0.561 | 0.48 | 0.506 | 0.757 | 0.733 | 0.655 | 0.453
5 | PHRSIYFSSPK [MPG_Y75_Y71H] | 1.01 | 0.46 | 0.609 | 0.663 | 1.48 | 0.786 | 0.862 | 0.687 | 0.859 | 0.674 | 0.982 | 0.61 | 0.498 | 0.584 | 0.927 | 0.803
6 | DVSVVYSEVKT [FCRL4_Y493] | 0.789 | 1.11 | 11.9 | 4.14 | 5.21 | 4.13 | 1.22 | 0.834 | 1.05 | 0.631 | 4.99 | 0.592 | 0.991 | 1.07 | 0.751 | 0.775
7 | KVKEQYQDVPM [PKP2_Y659] | 0.801 | 0.728 | 0.776 | 0.36 | 0.48 | 0.395 | 0.603 | 0.401 | 0.717 | 0.455 | 0.446 | 0.431 | 0.667 | 0.632 | 0.48 | 0.509
8 | KEDSVYGSQSV [NFKB2_Y868_A867V] | 1.03 | 0.389 | 0.554 | 0.498 | 0.984 | 1.35 | 0.608 | 0.399 | 0.946 | 0.449 | 1.43 | 0.41 | 0.829 | 0.794 | 0.557 | 0.353
9 | SENYTYIWWLN [PSG4_Y271_K267E] | 0.694 | 0.399 | 0.636 | 0.694 | 0.485 | 0.362 | 0.829 | 0.605 | 1.33 | 1.53 | 0.403 | 1.24 | 1.27 | 1.27 | 1.82 | 1.67
10 | MKNQKYGRIIM [HSD17B4_Y143_K140N] | 1.49 | 1.05 | 1.64 | 0.341 | 0.439 | 0.301 | 0.54 | 0.301 | 0.646 | 0.376 | 0.424 | 0.34 | 0.527 | 0.587 | 0.386 | 0.433
11 | ADYPDCKYRPR [SOX11_Y116_Y116C] | 0.833 | 0.634 | 0.799 | 0.426 | 0.416 | 0.406 | 0.706 | 0.41 | 0.955 | 0.496 | 0.427 | 0.51 | 0.733 | 0.657 | 0.626 | 0.606
12 | PMFHSYVSLPF [PLXNA2_Y293_K289M] | 0.745 | 3.37 | 1.4 | 0.789 | 3.34 | 0.751 | 0.712 | 1.2 | 1.56 | 1.98 | 1.08 | 1.86 | 1.4 | 2.01 | 2.26 | 3.85
13 | GHMYAYDWISI [BEST1_Y227_L224M] | 1.6 | 2.41 | 1.82 | 14.7 | 2.87 | 1.82 | 0.739 | 7.82 | 4.88 | 3.06 | 1.89 | 2.54 | 2.18 | 0.798 | 6.08 | 8.74
14 | HFVFFYSFLLK [PTEN_Y178_R173H_YF] | 2.43 | 1.05 | 1.14 | 1.01 | 0.819 | 1.55 | 2.85 | 1.44 | 2.93 | 1.32 | 1.07 | 0.844 | 2.18 | 3.35 | 1.14 | 0.682
